# According to patent US20210353784A1, “DETECTING AND TREATING CANCERS USING CELL PENETRANT MTP53-OLIGOMERIZATION-DOMAIN PEPTIDE” (priority 2020, published 2021):
# How the values were obtained:
# HCC70 = settings: 500 nM, 24 h; mtp53 R248Q
# Description: (§1) Three independent experiments with biological replicates were performed for all ±SEM *p-value ≤0.05, **p-value ≤0.01, ***p-value ≤0.001.
# (§2) Toxicity to normal cells and tissues represents an important barrier for drug delivery, and an advantage of cell penetrating peptide-based therapies is their low toxicity compared to most drug carriers. To evaluate the toxicity of Cy5p53Tet to breast cancer cells and normal breast mammary epithelial cells, the viability of cells was evaluated following peptide treatment (FIG. 1G).
# (§3) Peptidecytotoxicity Assay. A total of 1.25×10^5 cells were seeded in a 12-well plate the day before and grown at 37° C. Cells were treated with 500 nM Cy5p53Tet for 24 h, and 0.1 mL MTT solution [5 mg mL^−1 (3-(4, 5-dimethylthiazolyl-2)-2, 5-diphenyltetrazolium bromide] was added to the cells and incubated at 37° C. for 1 h. The cells were then resuspended in 0.04 N hydrochloric acid diluted in isopropanol and incubated in the dark on a shaker for 5 min at room temperature. The absorbance was quantified at 550 nm, and the background absorbance was subtracted at 620 nm.
# MDA-MB-468 cells = settings: 500 nM, 24 h; mtp53 R273H
# Description: as §1, §2, §3
# [1] = tested on: MCF7 and MDA-MB-468 xenografts; test: NIRF imaging of Cy5p53Tet in mice bearing bilateral MCF7/MDA-MB-468 xenografts (in vivo and ex vivo epifluorescence); settings: in vivo, after intravenous administration, 10 nmol
# Description: At 40, 80, and 180 min after injection, mice were sacrificed, and the xenografts were resected and imaged ex vivo (FIG. 2C).
# NIRF Imaging of Cy5p53Tet in Mice Bearing Bilateral MCF7/MDA-MB-468 Xenografts. Female athymic nude mice (6-10 weeks old, 01B74-Athymic NCr-nu/nu;) were obtained from Charles River Laboratories. Animals were supplemented with 17β-estradiol with a dose of 0.72 mg/pellet (60-day release) into the neck 7 days before MCF7 cells were subcutaneous implanted. 5×10^6 cells/mouse MCF7 cells were suspended in 100 μL of 1:1 media/matrigel basement membrane matrix (Corning) and injected subcutaneously on the left flank of each mouse (n≥3/group). After 4 weeks, 5×10^6 cells/mouse MDA-MB-468 cells were subcutaneously implanted in the right flank of the mouse in 100 μL of 1:1 media/matrigel basement membrane matrix. Imaging experiments were performed when the tumors reached a volume of ˜50-250 mm^3 (after approximately 3 weeks). Cy5p53Tet (10 nmol) was injected into the tail vein of each mouse. Prior to in vivo imaging, the mice were anesthetized with 1.5-2.0% isoflurane (Baxter Healthcare). Images were collected using an IVIS Spectrum (Perkin Elmer) 12 min, 30 min, and 3 h following the administration of Cy5p53Tet. […] Fluorescence imaging was carried out with excitation and emission wavelengths of 640 and 680 nm, respectively. […]
# mtp53 R273H = mtp53 R273H (Homo sapiens, UniProt P04637, R273H); test: Co-immunoprecipitation assay with purified mtp53 R273H; assay type: binding; settings: anti-p53 antibody sample; molar ratio 1:1; not by normal IgG
# Description: Anti-p53 DO1 antibody-coupled magnetic beads were used to pull down Cy5p53Tet/mtp53 complex, and normal mouse IgG-coupled magnetic beads were used as a control.
# To experimentally determine if Cy5p53Tet binds to mtp53 R273H, a co-immunoprecipitation assay was performed using purified mtp53 mixed with Cy5p53Tet in a molar ratio of 1:1 (FIG. 3C). The co-immunoprecipitation was carried out using anti-p53 antibody or nonspecific IgG.
# Co-immunoprecipitation Assay. Magnetic beads were used for co-immunoprecipitation assays, and 50 μL of the bead suspension was placed in each sample. The beads were washed twice with 1×PBS-0.1% Tween-20 by vortexing for 10 s. The beads were resuspended in 1×PBS-0.1% Tween-20 with either 1 μg of anti-p53 DO1 antibody or 1 μg of normal mouse IgG at a final volume of 100 μL. The tubes were incubated at room temperature for 10 min with continuous mixing. The beads were washed three times with 1×PBS-0.1% Tween-20, and 1 μg of purified mtp53 R273H and 100 ng of Cy5p53Tet peptide were incubated with the immobilized antibody at 4° C. for 150 min with constant rotation. Beads were pelleted and then washed with 1 mL 1×PBS-0.1% Tween-20 four times at room temperature. Bound proteins were eluted by incubating in 2×SDS Laemmli sample buffer containing 0.2 M DTT, heated at 95° C. for 10 min, and loaded on 15 or 10% polyacrylamide gel.
# mtp53 = target: T1, mtp53 (Homo sapiens, UniProt P04637, R273H); test: Glutaraldehyde cross-link assay in MDA-MB-468 cell lysates; assay type: binding; settings: in the presence of glutaraldehyde; cells treated 1.5 μM, 4 h; Cy5 channel
# T1 construct: endogenous in cells; host or cells: MDA-MB-468
# From the text: FIG. 4D illustrates Cy5p53Tet treated with glutaraldehyde without MDA-MB-468 cell lysate.
# Wtp53 can form a tetramer, and its oligomerization regulates its transcriptional activity. Tetramerization is important for both wtp53 and mtp53, as both are preferentially degraded by MDM2 when present as dimers rather than tetramers. The oligomerization states of mtp53 were examined and the interactions were investigated by Cy5p53Tet and mtp53 using glutaraldehyde (GA) cross-linking assays (FIG. 4A to FIG. 4D). MDA-MB-468 cells were treated with vehicle or 1.5 μM of Cy5p53Tet for 4 h. Whole-cell lysates were cross-linked with glutaraldehyde concentrations of 0, 0.0025, or 0.005%, and the samples were analyzed by Western blot to detect p53 oligomerization forms (FIG. 4A). In cells without glutaraldehyde, monomers of mtp53 were detected; at 0.0025% glutaraldehyde, monomers, dimers, and tetramers were visible; and at 0.005% glutaraldehyde, the predominant form was tetramers. The presence of Cy5p53Tet-containing mtp53 polypeptides was evaluated using the Cy5 channel (FIG. 4B). Cy5p53Tet was detected at a low molecular weight: <12 kDa in the absence of glutaraldehyde (FIG. 4B, lane 4). […] As a control, the glutaraldehyde cross-linking of Cy5p53Tet was examined without mtp53 and found no such signal (FIG. 4D). […]
# WHIM6 and WHIM25 tumors = test: SDS-PAGE Cy5 signal of protein extracts from WHIM6 and WHIM25 PDX tumors; assay type: in vivo, NSG mice; settings: SDS-PAGE of tumor extracts
# Description: 25 μg of proteins were run on 12% polyacrylamide gel and the Cy5p53Tet peptide accumulated in tumors was scanned at Cy5 channel and quantified. The intensity of Cy5p53Tet peptide was analyzed by ImageJ. p53 and MDM2 protein levels from the WHIM6 and WHIM25 tumors post-injection with Cy5p53Tet peptide at 1 hr, 2 hr and 3 hr were determined by Western blot analysis. 25 ug of proteins were load on 12% SDS-PAGE gel.
# First, WHIM6/WHIM25 bilateral PDX tumor-bearing NSG mice were tail vein injected with 10 nmol of Cy5p53Tet peptide to study its delivery efficacy (FIG. 5A). Then, the WHIM6 and WHIM25 tumors were removed at 1, 2, and 3 hr post-injection. Uptake of the Cy5p53Tet peptide in WHIM6 and WHIM25 tumors was assessed on an in vivo epifluorecent imaging system (IVIS). […] The Cy5p53Tet peptide signal was investigated in PDX tumor tissue by extracting proteins from the WHIM6 and WHIM25 tumors post-injection with the Cy5p53Tet peptide at 1 hr, 2 hr, and 3 hr, and the Cy5p53Tet peptide effects were characterized in PDX models (FIG. 5B). Samples were run on 12% polyacrylamide gel and the Cy5p53Tet peptide accumulated in tumors was scanned at Cy5 channel and quantified. […] In addition, p53 and MDM2 protein levels were checked upon Cy5p53Tet peptide treatment in PDX tumors.
substance,measurement,setting,value
H-CysCy5-RKKRRQRRGEYFTLQIRGRERFEMFRELNEALELK-OH (N-terminal Cy5; Synthetic peptide based on p53 protein) [Cy5p53Tet],mitochondrial activity reduced by,HCC70,13.6%
same,mitochondrial activity reduced by,MDA-MB-468 cells,10.6%
same,NIRF signal in MCF7 tumors,[1],no signal
same,NIRF signal in MDA-MB-468 tumors,[1],clearly observed
same,pull-down of Cy5p53Tet with mtp53 R273H,mtp53 R273H,significantly pulled down
same,molecular weight at which Cy5p53Tet was observed,mtp53,> 225 kDa
same,retention of Cy5p53Tet in mtp53 R273H WHIM25 versus wtp53 WHIM6,WHIM6 and WHIM25 tumors,longer
